From PMC7509987
Read-outs that look alike come from different tables or passages of the source.

B1: mTrxR-CUG (Mus musculus) (protein)
chain: GGQQSFDLLVIGGGSGGLACAKEAAQLGKKVAVADYVEPSPRGTKWGLGGTCVNVGCIPKKLMHQAALLGGMIRDAHHYGWEVAQPVQHNWKTMAEAVQNHVKSLNWGHRVQLQDRKVKYFNIKASFVDEHTVRGVDKGGKATLLSAEHIVIATGGRPRYPTQVKGALEYGITSDDIFWLKESPGKTLVVGASYVALECAGFLTGIGLDTTVMMRSIPLRGFDQQMSSLVTEHMESHGTQFLKGCVPSHIKKLPTNQLQVTWEDHASGKEDTGTFDTVLWAIGRVPETRTLNLEKAGISTNPKNQKIIVDAQEATSVPHIYAIGDVAEGRPELTPTAIKAGKLLAQRLFGKSSTLMDYSNVPTTVFTPLEYGCVGLSEEEAVALHGQEHVEVYHAYYKPLEFTVADRDASQCYIKMVCMREPPQLVLGLHFLGPNAGEVTQGFALGIKCGASYAQVMQTVGIHPTCSEEVVKLHISKRSGLEPTVTGCUG
B2: mTrxRΔ3 (Mus musculus) (protein)
chain: GGQQSFDLLVIGGGSGGLACAKEAAQLGKKVAVADYVEPSPRGTKWGLGGTCVNVGCIPKKLMHQAALLGGMIRDAHHYGWEVAQPVQHNWKTMAEAVQNHVKSLNWGHRVQLQDRKVKYFNIKASFVDEHTVRGVDKGGKATLLSAEHIVIATGGRPRYPTQVKGALEYGITSDDIFWLKESPGKTLVVGASYVALECAGFLTGIGLDTTVMMRSIPLRGFDQQMSSLVTEHMESHGTQFLKGCVPSHIKKLPTNQLQVTWEDHASGKEDTGTFDTVLWAIGRVPETRTLNLEKAGISTNPKNQKIIVDAQEATSVPHIYAIGDVAEGRPELTPTAIKAGKLLAQRLFGKSSTLMDYSNVPTTVFTPLEYGCVGLSEEEAVALHGQEHVEVYHAYYKPLEFTVADRDASQCYIKMVCMREPPQLVLGLHFLGPNAGEVTQGFALGIKCGASYAQVMQTVGIHPTCSEEVVKLHISKRSGLEPTVTG

Columns and labels:
Format in all cases: biochemical
Conditions in all cases: pH 7.0; 22.0 °C
[1] = substrate: NCC[Se][Se]CCN
[2] = substrate: O=C(O)c1cc(SSc2ccc([N+](=O)[O-])c(C(=O)O)c2)ccc1[N+](=O)[O-]
[3] = substrate: NCC[Se][Se]CCN; remark: listed apart in the source
[4] = substrate: O=C(O)c1cc(SSc2ccc([N+](=O)[O-])c(C(=O)O)c2)ccc1[N+](=O)[O-]; remark: listed apart in the source

| Protein | Km [1] | kcat [1] | kcat/Km [1] | Km [2] | kcat [2] | kcat/Km [2] | Km [3] | kcat [3] | kcat/Km [3] | Km [4] | kcat [4] | kcat/Km [4] |
| --- | --- | --- | --- | --- | --- | --- | --- | --- | --- | --- | --- | --- |
| B1 | 79 ± 0.7 µM | 62.3 ± 7.5 s⁻¹ | 783000 M⁻¹ s⁻¹ | 3 ± 0.7 µM | 52.8 ± 7.5 s⁻¹ | 1.83e+07 M⁻¹ s⁻¹ |  |  |  |  |  |  |
| B2 |  |  |  |  |  |  | 1033 ± 114 µM | 1.27 ± 0.0667 s⁻¹ | 1220 M⁻¹ s⁻¹ | 12 ± 2.7 µM | 48.3 ± 8.33 s⁻¹ | 4e+06 M⁻¹ s⁻¹ |
